Source: PMC7935965, “RNF8 ubiquitinates RecQL4 and promotes its dissociation from DNA double strand breaks” (Oncogenesis, 2021)

T1: recombinant Flag-RecQL4 (human, UniProt O94761 1-1208)
T1 construct: also called purified Flag-RecQL4; source: E. coli (BL21 in the results; Rosetta (DE3) in the methods), IPTG-induced, purified
T1 sequence (looked up): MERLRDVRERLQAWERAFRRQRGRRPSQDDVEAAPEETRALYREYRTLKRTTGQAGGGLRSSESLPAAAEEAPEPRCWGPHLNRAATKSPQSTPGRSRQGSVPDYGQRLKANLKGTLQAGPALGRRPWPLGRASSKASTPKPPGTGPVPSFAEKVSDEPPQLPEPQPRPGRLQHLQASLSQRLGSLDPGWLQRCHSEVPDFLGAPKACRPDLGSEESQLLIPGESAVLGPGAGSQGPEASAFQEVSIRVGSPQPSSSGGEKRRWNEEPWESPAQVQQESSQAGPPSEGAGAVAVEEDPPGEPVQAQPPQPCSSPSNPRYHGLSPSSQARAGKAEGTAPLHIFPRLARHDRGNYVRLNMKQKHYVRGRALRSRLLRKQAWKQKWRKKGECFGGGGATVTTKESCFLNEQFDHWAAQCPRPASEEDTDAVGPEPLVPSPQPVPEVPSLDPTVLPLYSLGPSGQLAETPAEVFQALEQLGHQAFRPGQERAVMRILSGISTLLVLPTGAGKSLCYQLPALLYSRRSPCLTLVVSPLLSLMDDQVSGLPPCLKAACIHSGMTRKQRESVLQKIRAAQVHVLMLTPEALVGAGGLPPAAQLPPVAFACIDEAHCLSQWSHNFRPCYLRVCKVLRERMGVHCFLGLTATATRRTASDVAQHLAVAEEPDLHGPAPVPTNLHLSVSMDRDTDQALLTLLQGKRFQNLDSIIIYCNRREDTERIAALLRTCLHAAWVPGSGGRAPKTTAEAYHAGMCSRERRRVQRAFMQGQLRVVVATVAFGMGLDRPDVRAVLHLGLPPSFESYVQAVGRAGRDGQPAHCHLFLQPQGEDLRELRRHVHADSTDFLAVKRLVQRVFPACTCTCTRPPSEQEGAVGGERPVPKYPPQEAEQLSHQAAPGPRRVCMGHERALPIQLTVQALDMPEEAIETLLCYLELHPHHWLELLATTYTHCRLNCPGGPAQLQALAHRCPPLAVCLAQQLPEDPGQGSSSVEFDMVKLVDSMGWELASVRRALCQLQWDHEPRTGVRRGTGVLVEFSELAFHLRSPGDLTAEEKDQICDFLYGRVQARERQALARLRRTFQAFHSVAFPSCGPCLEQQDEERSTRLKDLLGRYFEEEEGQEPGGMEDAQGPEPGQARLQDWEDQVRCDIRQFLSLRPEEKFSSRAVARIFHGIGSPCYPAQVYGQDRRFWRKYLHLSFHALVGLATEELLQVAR

B1: GST-RNF8 (natural protein, UniProt O76064-1 1-485, looked up)
chain: MGEPGFFVTGDRAGGRSWCLRRVGMSAGWLLLEDGCEVTVGRGFGVTYQLVSKICPLMISRNHCVLKQNPEGQWTIMDNKSLNGVWLNRARLEPLRVYSIHQGDYIQLGVPLENKENAEYEYEVTEEDWETIYPCLSPKNDQMIEKNKELRTKRKFSLDELAGPGAEGPSNLKSKINKVSCESGQPVKSQGKGEVASTPSDNLDPKLTALEPSKTTGAPIYPGFPKVTEVHHEQKASNSSASQRSLQMFKVTMSRILRLKIQMQEKHEAVMNVKKQTQKGNSKKVVQMEQELQDLQSQLCAEQAQQQARVEQLEKTFQEEEQHLQGLEIAQGEKDLKQQLAQALQEHWALMEELNRSKKDFEAIIQAKNKELEQTKEEKEKMQAQKEEVLSHMNDVLENELQCIICSEYFIEAVTLNCAHSFCSYCINEWMKRKIECPICRKDIKSKTYSLVLDNCINKMVNNLSSEVKERRIVLIRERKAKRLF
notes: RNF8; also called purified recombinant GST-RNF8; source: E. coli BL21, purified (GST beads)
B2: GST-WRAP53β (natural protein)
chain: not shown
notes: WRAP53β; also called purified recombinant GST-WRAP53β; source: E. coli, purified (GST beads)

Legend:
[1] = target: T1, recombinant Flag-RecQL4; test: pull-down; Flag-RecQL4 immobilised on M2 beads at 4 °C overnight, GST fusion proteins added at 4 °C for 4 h; GST-RNF8 with increasing input of GST-WRAP53β; western blot; settings: both partners purified
[2] = target: T1, recombinant Flag-RecQL4; test: pull-down; GST fusion protein immobilised on glutathione Sepharose 4B at 4 °C overnight, incubated with purified Flag-RecQL4 at 4 °C for 4 h; western blot; settings: both partners purified

Binder	binding result [1]	binding result [2]
B1	binds	
B2		binds
